The target in the assay is ChrB-His6 (Ochrobactrum tritici 5bvl1). Briefly: cross-linking; 8 µg purified protein, 0.1% glutaraldehyde, 20 mM NaCl, 10 mM KCl, 2 mM DTT, 20 mM Hepes pH 7.5, 30°C, 2 to 60 min; read by 10% SDS-PAGE or anti-His immunoblot; also with chr promoter DNA and/or Cr(VI), without effect. In general terms: Immunoblotting shows a protein as a band on a membrane.

By stoichiometry N is commonly meant the number of molecules, sites or subunits per partner or assembly.

Substance ChrB-His6 (natural protein) returned a stoichiometry N of 2.
